Results reported in the nanobody polyreactivity screen of Harvey et al. (2022).

assay: yeast display, Sf9 membrane polyspecificity reagent, FACS + sequencing; frameworks hold sequencing errors
Summary of the method: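 Galactose induction of a Saccharomyces cerevisiae BJ5465 synthetic nanobody display library ran 36–48 hours. The cells were then stained for 1 hour at 4 °C with 10% biotinylated, detergent-solubilized Sf9 membrane reagent, pulled down on streptavidin microbeads and FACS-sorted into low and high (top ~1%) gates on expression and reagent-binding fluorescence. Labels for polyreactivity follow the gate of origin.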

| Sequence | polyreactivity (PSR sort gate) |
| --- | --- |
| QVQLVESWGGLVQAGGSLRLSCAASGRIFWAYAMGWYRHAPGKERELVAGITFTGGRTYYADSVKGRFTISRDNAKNTVYLQMNSLKPEDTAVYYCAAAGLDVGRKDRDGYWGQGTQVTVSS | low polyreactivity |
| HVQLVESGGGLVQAGGSLRLSCAASGSTVRRYAMGWYRQAPGKEREFVASITWRGGGTYYADSVKGRFTISRDNAKNTVYLQMNSLKPEETAVYYCASATQVRGHSLPYGYWGQGTQVTVSS | high polyreactivity |
| QVQLVDSGGGLVQAGGSLRLSCAASGSTSYWYAMGWYRLAPWKEMELFATIRSRGGSTSYADSVKGRFTISRDNAKNTVYLQMNSLKPEDTAVYYCAVEYQSWKGWWFDYWGQGTQVTVSS | high polyreactivity |
| QVQLVESGGGLVQAGGSLRLSCTASGSTYVAYAMGLYRQAPGKERELVAAITSSGGRTYYADSVKGRFTISRDNAKNTVYLQMNSLKPEDTAVYYCDAVTHGRYDWGQGTQVTVSS | high polyreactivity |
| QVQLVESGGGLVQAGGSLRLTCAASGRILYSYAMGWYRQEPGKERELVAAISGSGGSTYYADSVKGRFTISRDNSKNTVYLQMNMLKPEDTAVYYCAARDLYRYRPQGLGSSQRYYYWGQGTQVTVSS | high polyreactivity |
| QVQLVESGGGLVQAGGSLRLSCAASGSTFRQNAMGWYRQAPRKERELVATIRTSGGTTYYADSVKGRFTISRDTAKNTVYLQMNSLKPVDTAVYYCAAVSYLFLYQGYPIAYPMYYWGQGTQVTVSS | low polyreactivity |
| QVQLQDSGSGLVQAGGSLRLSCAASGAIFPAYLMVSYRQAPGKERELVAGISYGSITYCADSVKGRFNISRDNAKNTVYLQMNSLKPEDTAVYYCAVWRPGGDEYYYWGQGTQVTVSS | low polyreactivity |
| QVQLVESGGGLVQAGGSLRLSCAASGRTFTGNAMGWYRQAPGKERELVAAISFSGASTYYADSVKGRFTISRDNAKNTVYLQMNSLKPEDTAVYYCNADSRYRSFDYWGQGTQVTVSS | high polyreactivity |
| QVQLVESGGGLVQAGGSLRLSCAASGIIFFANAMGWYRQAPGKERELVASISASGGNTYYADSVKGRFTISRDNAKNTVYLQMNSLKPEDTAVYYCAARARRSQSISLKYYYWGQGTQVTVSS | high polyreactivity |
| QVQLVESGGGLVQAGGSLRLSCAASGRTFYVNARGWYREAPGKERELVATISRGTRTYYADSVKGRFTISRDNAKNTVYLQMNSLIPEDTAVYYCAADARPYESPYYYWGQGTQVTVSS | high polyreactivity |
| QVQLVESGGGLVQAGGSLRLSCSATGLTFRPYAMGWYRQAPGTERELVAGITRGGSTKYADSVKGRFTISRDNAKNTVYLLMISLKPEDTAVYYCAVERGSYSYDRPFYYWGQGTQVTVSS | high polyreactivity |
| QVQLVESGGGLVQAGGSLRLSCSASGSTFEKNAMGWYRQAPGKERELVAAISNGVSTYYADSVKGRFTNSRDNAKNTVYLKINSLKPEDTAVYYCAAVLFFGAETVYYDKFDYWGQGTQVTVSS | low polyreactivity |
| QVQLVESGGGLVQAGGSLRLSCAASGRISRCYVMGWYRQEPGKERELVAAITWNSGSTYYADSVKGRFTISRDNAKNTVYLQMNSLKPEDTAVYYCAAVLYSRYQQYDFWGQGTQVTVSS | high polyreactivity |
| QVQLVESGGGLVQAGGSLRLICAASGRTFALYAMGWYRQAPGKEREVVASISWRGGSTYYADSVKGRFTISRDTAKNTVYLQMNSLKPEDTAVDYCAADTWSYGPLNYRLEYWGQGTQVTVSS | low polyreactivity |
| QVQLVDSGGGLVQAGGSLRLSSAASGFIFQANAMGSSRQAPGKERELVAAIDDGDSTYADSVKGRFTISRDNAKNSVYLQMNSLKPEDTAVYYCATRRNRSYDYWGQGTQVTVSS | low polyreactivity |
| QVQLVESGGGLVQAGCSLRLSCASSGRIFYGNAMGWYRQAPGKERELVAAISKSGASTYYADSVKGRFTISRDNAKNTVYLQMNSLKPEDTAVYYCAAETPRRKYNYWGQGSQVTVSS | high polyreactivity |
| QVQLVESGGGLVQAGGSLRLSCAASGSIFDTYAMGWYRQAPGKEREFVAAISRNGGSTYYADSVKGRFTISRDNAKNTVYLQMNSLKAEDTAVYYCATDKRHKFDYWGQGTQVTVSS | low polyreactivity |
